Results from patent publication US11702469B2, “Recombinant EGFL7, EGFL7 antibodies, and uses thereof” (Ohio State Innovation Foundation, priority 2017, dated 2023).
Entries after “also recorded” stand apart in the source; their conditions may differ.

How the values were obtained:
BoyJ recipient mice = assay: Competitive repopulation BM transplantation of treated BM; format: in vivo; details: three weeks post-BMT, BM of treated mice vs IgG1 control
Method: FIG. 20A-20B. WT mice were treated with 50 mpk twice weekly of Parsatuzumab (@EGFL7) or IgG1 control. FIG. 20A. CBCs from mice harvested after treatment. FIG. 20B. Percent engraftment of treated BM (CD45.2+) transplanted into BoyJ recipient mice (CD45.1).
To assess the toxicity of Parsatuzumab on normal hematopoiesis, wild type (C57Bl/6J) mice were treated with Parsatuzumab (n=4) and IgG1 control (n=4) with the highest dose previously tested at 50 mpk twice a week for two weeks. Parsatuzumab targets both human and mouse EGFL7 protein. After two weeks of treatment, blood, spleen and BM were harvested and full phenotypic characterization was performed to assess toxicity. […] Full immunophenotypic examination of BM populations was also performed (data not shown due to space constraints). […] To functionally test the effect of Parsatuzumab on normal HSPCs, competitive repopulation BM transplantation (BMT) assays and CFU assays were performed. For competitive BMT, 2×10^6 WBM was harvested from Parsatuzumab and IgG1 treated mice (CD45.2) with 2×10^6 BoyJ (CD45.1) WBM and transplanted into lethally irradiated BoyJ recipients.

HES1 = assay: DLL4-Fc coated plate NOTCH activation (HES1 qRT-PCR), THP-1; format: cell-based, human; details: pre-treated 30 min: 10 μM AVA, 100 μg/ml anti-EGFL7 or 0.25 μM rEGFL7; then 4 h; vs DLL4-FC
Method: (§1) FIG. 24A-24G. EGFL7 prevents activation of NOTCH signaling in AML cells. (FIG. 24A) Overview of experiments using DLL4-FC and IgG-FC control coated plates to induce NOTCH activation. (FIG. 24B) THP-1 cells were pre-treated with 10 μM γ-secretase inhibitor (AVA), 100 μg/ml anti-EGFL7 antibody or 0.25 μM rEGFL7 for 30 min, then transferred to IgG-Fc or DLL4-Fc coated plates. After 4 h of incubation total RNA from THP-1 cells was extracted for qRT-PCR analysis of HES1 with β-ACTIN as internal control. ^###P<0.001 DLL4-FC vs IgG-FC; ***P<0.001 DLL4+AVA, DLL4+rEGFL7, and DLL4+anti-EGFL7 vs DLL4-FC. (FIG. 24C) Primary AML blasts were pretreated with 10 μM γ-secretase inhibitor (AVA), 100 μg/ml anti-EGFL7 antibody or 0.25 μM rEGFL7 for 30 min, then transferred to IgG-Fc or DLL4-Fc coated plates. After 4 h of incubation, total RNA was extracted for RT-PCR analysis of HES1 mRNA with β-ACTIN as internal control. ^###P<0.001 DLL4-Fc vs IgG-Fc; *P<0.05, ***P<0.001 vs DLL4 Fc. THP-1 cells were treated with the indicated concentration of anti-EGFL7 (@E7) then assessed for apoptosis using (FIG. 24D) AnnexinV+ staining and FACS; *P<0.05 (FIG. 24E) Immuno-blotting for PARP1 and Casp3 cleavage. (FIG. 24F) Cell differentiation was assessed by CD11B and CD14 staining 96-hours post anti-EGFL7 treatments; *P<0.05. (FIG. 24G) To determine whether activation of NOTCH by DLL4-Fc could be accentuated by anti-EGFL7 treatment, THP-1 cells were first treated with anti-EGFL7 (100 μg/ml) and then cultured on DLL4-FC or IgG-Fc coated plates and then assessed for apoptosis using AnnexinV+ staining and FACS. *P<0.05 DLL4-Fc and anti-EGFL7; vs DLL4-FC+anti-EGFL7.
Total RNA was extracted using Trizol reagent (Invitrogen, Carlsbad, Calif., USA). cDNA was synthesized using SuperScript III reagents (Invitrogen) according to the manufacturer's instruction. Quantitative Real-Time RT-PCR was performed using commercially available TaqMan Gene Expression Assay primers and the 7900HT Fast Real-Time PCR System (Applied Biosystems, Foster City, Calif., USA). […]

THP-1 cells = assay: Differentiation (CD11B and CD14 staining), THP-1; format: cell-based, human; details: 96-hours post anti-EGFL7 treatment
Method: as §1, with “(FIG. 24C) Primary AML blasts were pretreated with 10 μM γ-secretase inhibitor (AVA), 100 μg/ml anti-EGFL7 antibody or 0.25 μM rEGFL7 for 30 min, then transferred to IgG-Fc or DLL4-Fc coated plates. After 4 h of incubation, total RNA was extracted for RT-PCR analysis of HES1 mRNA with β-ACTIN as internal control. ^###P<0.001 DLL4-Fc vs IgG-Fc; *P<0.05, ***P<0.001 vs DLL4 Fc.” left out, “DLL4-FC+anti-EGFL7. […]” for “DLL4-FC+anti-EGFL7.”

B1: Parsatuzumab: Anti-human EGFL7 therapeutic antibody (Parsatuzumab) obtained from Creative Biolabs; blocking monoclonal antibody (antibody, chains of the INN, looked up, V domains shown)
VH: EVQLVESGGGLVQPGGSLRLSCAASGYTFIDYYMNWVRQAPGKGLEWVGDINLDNSGTHYNQKFKGRFTISRDKSKNTAYLQMNSLRAEDTAVYYCAREGVYHDYDDYAMDYWGQGTLVTVSS
VL: DIQMTQSPSSLSASVGDRVTITCRTSQSLVHINAITYLHWYQQKPGKAPKLLIYRVSNRFSGVPSRFSGSGSGTDFTLTISSLQPEDFATYYCGQSTHVPLTFGQGTKVEIK
- donor chimerism / percent engraftment (CD45.1 vs CD45.2) (BoyJ recipient mice): no significant differences; also recorded: No significant changes
- DLL4-Fc-mediated NOTCH activation (HES1) (HES1): enhanced
- CD11B and CD14 expression (THP-1 cells): increases were found in both these markers
